B1: Q9NYJ2 360-373 (peptide)
chain: NFGNLPRPGRGARG
B2: Q99654 1-14 (peptide)
chain: MSSAPRRPAKGADS
B3: Q14676 96-109 (peptide)
chain: NGTQILRPPKVLSP
B4: O15050 583-596 (peptide)
chain: NSEHFHRPLRRSEA
B5: P18146 321-334 (peptide)
chain: MRKYPNRPSKTPPH
B6: O43776 380-393 (peptide)
chain: NFQPPKRPFKRMNY
B7: Q9Y2K2 611-624 (peptide)
chain: AQQLLKRPRGPSPL
B8: Q15428 237-251 (peptide)
chain: MNGLPPRPPLPESL
B9: Q96DH7 35-48 (peptide)
chain: MQFSIRRPKLPSSE
B10: Q96JI4 1223-1236 (peptide)
chain: AREEFRRPRESLLN
B11: Q13808 54-67 (peptide)
chain: MLAMPRRPDPVFLN
B12: Q9NWE7 371-384 (peptide)
chain: NGYFFKRPYPFVLF
B13: O15399 995-1009 (peptide)
chain: AAQPPQKPPASYFA
B14: Q9P2M8 940-953 (peptide)
chain: MSTPLRRPSASETV
B15: Q9BRN8 20-34 (peptide)
chain: MVPGPARPPGSSWD
B16: Q13873 1-14 (peptide)
chain: MTSSLQRPWRVPWL
B17: Q9HC40 116-129 (peptide)
chain: NEDYPRRPLTRARS
B18: P21579 394-407 (peptide)
chain: MLANPRRPIAQWHT
B19: P35711 136-149 (peptide)
chain: NEPHIKRPMNAFMV
B20: Q9NPP7 87-101 (peptide)
chain: MLLLPPRPPHPRSS
B21: O43284 274-287 (peptide)
chain: NSQAPRRPWLASHM
B22: Q96TH1 910-923 (peptide)
chain: NSFIPKRPIPTIKD
B23: Q96GZ7 12-25 (peptide)
chain: ARAALRRPLSGQAL
B24: P53539 138-151 (peptide)
chain: ARARPRRPREETLT
B25: Q15598 1736-1749 (peptide)
chain: NETGLSRPRRTAMS
B26: P25705 324-337 (peptide)
chain: MSLLLRRPPGREAY
B27: O75925 239-252 (peptide)
chain: NGVEPKRPSRPINI
B28: O94947 263-276 (peptide)
chain: MLLSPRRPTVEKRA
B29: Q96IB4 40-53 (peptide)
chain: MTVAIRRPGVPGAP
B30: P19099 413-426 (peptide)
chain: NAALFPRPERYNPQ
B31: O95600 103-116 (peptide)
chain: MLQAPIRPPKPQSS
B32: P10747 192-205 (peptide)
chain: MNMTPRRPGPTRKH
B33: O00445 360-373 (peptide)
chain: MLANPRRPIAQWHS
B34: P27708 1830-1843 (peptide)
chain: MTTTPERPRRGIPG
B35: Q9Y6A1 1-14 (peptide)
chain: MWGFLKRPVVVTAD
B36: Q9Y6X2 222-235 (peptide)
chain: NGAEPKRPSRPINI
B37: Q9Y367 343-356 (peptide)
chain: NFGDLGRPGRGGRG
B38: Q13423 581-594 (peptide)
chain: MLDMFKRPTDPPEY
B39: Q9Y3I1 502-515 (peptide)
chain: NDRFPFRPSRGRPT
B40: O75833 1-14 (peptide)
chain: MLLRPRRPPPLAPP
B41: Q9H251 2718-2731 (peptide)
chain: NEPLFVRPPKGSPQ
B42: Q92876 108-121 (peptide)
chain: MLLRLARPAKLSEL

How the values were obtained:
[1] = molecular target: T1, amphyphisin SH3 (AMPH_HUMAN), P49418; experiment: SPOT array
T1 chain: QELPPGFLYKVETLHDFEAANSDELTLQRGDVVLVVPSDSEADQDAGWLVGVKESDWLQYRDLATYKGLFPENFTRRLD

[2] = molecular target: endophilin SH3 (SH3G2_HUMAN), Q99962; experiment: SPOT array

| Binder | normalised SPOT signal, Boehringer light units (BLU); mean over the file's lines of this peptide [1] | normalised SPOT signal, Boehringer light units (BLU); mean over the file's lines of this peptide [2] |
| --- | --- | --- |
| B1 | 946 | 1340 |
| B2 | 178 | 222 |
| B3 | 5 | 150 |
| B4 | 512 | 199 |
| B5 | 222 | 1570 |
| B6 | 793 | 525 |
| B7 | 55.3 | 75.7 |
| B8 | 58.1 | 9000 |
| B9 | 118 | 532 |
| B10 | 19.8 | 27.4 |
| B11 | 57.7 | 214 |
| B12 | 64.4 | 106 |
| B13 | 45.4 | 125 |
| B14 | 18.3 | 228 |
| B15 | 45.4 | 33.6 |
| B16 | 506 | 227 |
| B17 | 393 | 690 |
| B18 | 108 | 122 |
| B19 | 46.1 | 0 |
| B20 | 3000 | 11500 |
| B21 | 88.2 | 6860 |

| Binder | normalised SPOT signal, Boehringer light units (BLU); mean over the file's lines of this peptide [1] | normalised SPOT signal, Boehringer light units (BLU); mean over the file's lines of this peptide [2] |
| --- | --- | --- |
| B22 | 49.2 | 556 |
| B23 | 87.1 | 85.3 |
| B24 | 42.3 | 181 |
| B25 | 742 | 154 |
| B26 | 15.9 | 63.4 |
| B27 | 4650 | 35.6 |
| B28 | 344 | 8300 |
| B29 | 55.2 | 80.3 |
| B30 | 699 | 63.6 |
| B31 | 1050 | 2740 |
| B32 | 76.1 | 2530 |
| B33 | 33.7 | 551 |
| B34 | 9560 | 2030 |
| B35 | 37.8 | 121 |
| B36 | 3920 | 105 |
| B37 | 895 | 882 |
| B38 | 34.5 | 56.5 |
| B39 | 2600 | 4510 |
| B40 | 2650 | 5190 |
| B41 | 215 | 154 |
| B42 | 346 | 342 |
